Laboratory results published in US20170368136A1 (REGENTS OF THE UNIVERSITY OF COLORADO A BODY CORPORATE, published 2017).

Target: CaMKII
Experiment: cell-based or functional assay

CaMKII, sequence (chain, from a related filing, as listed by the source): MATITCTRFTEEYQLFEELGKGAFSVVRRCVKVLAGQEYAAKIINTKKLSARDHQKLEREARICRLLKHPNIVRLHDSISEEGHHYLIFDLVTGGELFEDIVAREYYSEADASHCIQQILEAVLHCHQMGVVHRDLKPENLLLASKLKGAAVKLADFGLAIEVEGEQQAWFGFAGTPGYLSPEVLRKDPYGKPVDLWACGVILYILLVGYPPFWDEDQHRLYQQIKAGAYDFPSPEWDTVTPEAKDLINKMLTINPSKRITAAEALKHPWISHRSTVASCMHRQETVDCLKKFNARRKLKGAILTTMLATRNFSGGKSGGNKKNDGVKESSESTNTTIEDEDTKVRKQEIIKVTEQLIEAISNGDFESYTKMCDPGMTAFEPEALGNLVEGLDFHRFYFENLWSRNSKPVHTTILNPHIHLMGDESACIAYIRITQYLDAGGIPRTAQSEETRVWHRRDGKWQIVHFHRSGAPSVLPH

B1: CN20 (peptide)
peptide: KRPPKLGQIGRSKRVVIEDD
In the case of B1, the “IC50, phosphorylation of syntide 2 by CaMKII” value is reported as roughly 100 nM.

B2: CN19 (peptide)
peptide: KRPPKLGQIGRSKRVVIED
For B2, the “IC50, phosphorylation of syntide 2 by CaMKII” value was roughly 100 nM.

B3: CN19 R11A (peptide)
peptide: KRPPKLGQIGASKRVVIED
B3 was tested, and the “fold reduction of potency of CaMKII inhibition against CN19” value was greater than 3 fold.

B4: CN19 S12A (peptide)
peptide: KRPPKLGQIGRAKRVVIED
B4 was tested, and the “fold decrease of potency of CaMKII inhibition against CN19” value was greater than 3 fold.

B5: CN19 R14A (peptide)
peptide: KRPPKLGQIGRSKAVVIED
In the case of B5, the “fold increase of potency of CaMKII inhibition against CN19 wild type” value is reported as greater than 10 fold.

B6: CN19a2v (peptide)
peptide: KRAPKLGQIGRVKAVVIED
With B6 the “IC50 of CaMKII inhibition (syntide 2)” value was roughly 20 nM and the “fold potency of CaMKII inhibition against CN19” value was roughly 5 fold.

B7: CN19a2v V12Q (peptide)
peptide: KRAPKLGQIGRQKAVVIED
For B7, the “IC50 of CaMKII inhibition” value was roughly 1 nM.

B8: CN19a2v V16D (peptide)
peptide: KRAPKLGQIGRVKAVDIED
B8 was tested, and the “IC50 of CaMKII inhibition” value was roughly 1 nM.

B9: CN19o (peptide)
peptide: KRAPKLGQIGRQKAVDIED
With B9 the “IC50 of CaMKII inhibition (CaMKII activity assay, 0.1 nM CaMKII)” value was roughly 0.75 nM and the “fold potency of CaMKII inhibition against CN19” value was greater than 125 fold.
